# From publication PMC3982596
# Target: YFP-LacI-HP1α (human) (UniProt P45973)
# Chain of UniProt P45973 (P45973 whole entry): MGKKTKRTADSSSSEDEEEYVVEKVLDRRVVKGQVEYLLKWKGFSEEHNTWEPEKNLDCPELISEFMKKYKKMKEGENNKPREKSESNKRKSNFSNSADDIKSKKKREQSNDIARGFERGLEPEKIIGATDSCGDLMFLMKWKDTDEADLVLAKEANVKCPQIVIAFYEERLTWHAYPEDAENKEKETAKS
substance,measurement,value
CFP-NDR1 (from UniProt Q15208 1-465) (enzyme),percent of cells with the binder at the tethered locus (% of the cells),18
